This data set concerns K4 kissing-loop RNA reporter. Nature of the data set: apparent KD of K4 kissing-loop reporter; higher = weaker reporter binding. The settings on record: Eterna round: R107. On the procedure:
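RNA-MaP round R107: designed RNA switches with theophylline, tryptophan, arginine or FMN aptamers are transcribed on-chip within common flanks. They are titrated with a labelled K4 kissing-loop RNA reporter in RNA-MaP buffer (100 mM Tris pH 7.5, 80 mM KCl, 4 mM MgCl2), without ligand or with the indicated ligand. Median apparent KD per design.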

Where [1] appears, read: input ligand: theophylline 20 uM.
The mark [2] stands for this setting: input ligand: tryptophan 2.4 mM.

Data on 21 sequences can be found in the supplement of paper PMC9170038.
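Also: bound reporter read as fluorescence of individual clusters on recovered sequencing chips by microscopy, with normalized cluster intensities fitted with a binding model.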

“GCAUCCAUGUGAGGAUAUCGAGACGAGUGAUGUUCGGGCACCAGACAGGGAGACCUGUCAAUGGCUUGAGAAGGCACAUGGAUGC”: the “apparent KD of K4 kissing-loop reporter” value stood at 231 nM (input ligand: FMN 200 uM); 196 nM (input ligand: arginine 13.2 mM); 249 nM (input ligand: none); 199 nM under setting [1]; 217 nM under setting [2].
As to “GCAUCCUAGUCGGCCGCCACUGACAUGAGUGAUGUUCAUGUUCGUCAGUGAUGUUGACGUUGUUACAGGACCGGGACUAGGAUGC [KL-SSTryp-B8 Brourdwalk4 #Double KL]”, the “apparent KD of K4 kissing-loop reporter” value was 169 nM (input ligand: FMN 200 uM); 143 nM (input ligand: arginine 13.2 mM); 165 nM (input ligand: none); 150 nM under setting [1]; 119 nM under setting [2].
On the same counts, the results for “GCAUGGGUGCUUGCACAAGUGAUGUUUGGGCGAGGACCGGUACGGCCGCCACUCGUACGUUUAGUUAAAAGACAUCAUGCGAGUC [theeternabot_exclusion_KL_Trp_A_11]” are 291 nM, 246 nM, 356 nM, 339 nM and 164 nM.
On the same counts, the results for “GCCAGAGCGCGAAGGAGCGCCCUGACAGGUUGCUGCCGUGGGCAGUGAUGUUGCUCAGUCCGGCAGGUAGGUCGCGUGCUCUGGC” are 222 nM, 165 nM, 193 nM, 196 nM and 174 nM.
“GCCAGUGAUGUUGGCAUUUCGAGCCAUGAAGGAGCGCACGGAAGUGCAGGUAGGUCGCAUGGUACUUAGGAUAUUACCCUAAGUA [Isterare]”: the “apparent KD of K4 kissing-loop reporter” value runs as follows: (input ligand: FMN 200 uM) 206 nM; (input ligand: arginine 13.2 mM) 177 nM; (input ligand: none) 212 nM; under setting [1], 200 nM; under setting [2], 161 nM.
For “GCCGUAGAUUGAAGGAGCGGUUCAUCAAUUCAAGUCGAGUGAUGUUCGACGAUUCUCAGUAACCAGGUAGGUCGCAAUCUACGGC”, in that order: 175 nM, 142 nM, 150 nM, 171 nM and 143 nM.
On the same counts, the results for “GCCUAGCAGGGAAGGAGCGCCAUAAGAAGUAAAGGAGGGAGUUGAGUGAUGUUCAAAAUGUGGCAGGUAGGUCGCCCUGCUAGGC [KL-SSArg B13]” are 705 nM, 388 nM, 635 nM, 490 nM and 507 nM.
For “GCGCCGGUCUGCUUUAGAGUGAUGUUCUCCCGAGGACCGGUACGGCCGCCACUCGGCCAACGCUAUUAUCUUUGAUCCGCGGUGC [theeternabot_exclusion_KL_Trp_A_41]”, in that order: 1300 nM, 840 nM, 1000 nM, 1120 nM and 948 nM.
In the case of “GCGCGGCAGGCGGCCGCCACUCUGACGAGCCACAGUGAUGUUGUGGUCGGAGAAACGUCUUCAUAGAGGACCGGGUUUGUUGUUC [Same State Typtophan A GF 25]”, the “apparent KD of K4 kissing-loop reporter” value reads like this: (input ligand: FMN 200 uM) 215 nM; (input ligand: arginine 13.2 mM) 186 nM; (input ligand: none) 226 nM; under setting [1], 189 nM; under setting [2], 177 nM.
In the case of “GCGCGUCAUGUCAGCGGAGACACUGUCGAUACCAGCGCCGCAAGGCGCCCUUGGCAGCGACGCGCUGGAGUGAUGUUCCAGCGUG [#2 Exclusion - Theophylline A Attempt #15 (HarryS)]”, the “apparent KD of K4 kissing-loop reporter” value (input ligand: FMN 200 uM) was determined as 171 nM; the “apparent KD of K4 kissing-loop reporter” value (input ligand: arginine 13.2 mM) was 154 nM; the “apparent KD of K4 kissing-loop reporter” value (input ligand: none) stood at 148 nM; the “apparent KD of K4 kissing-loop reporter” value under setting [1] was determined as 143 nM; the “apparent KD of K4 kissing-loop reporter” value under setting [2] turned out to be 159 nM.
For “GCUAAGGAGUGAUGUUCCAAGUGAUGUUAACGAGGACCGGUACGGCCGCCACUCGAUACGGCCGGAAAGUAAGAUAAACUACAGU [Same State - Tryptophan A (Freestyle 4)]”, in that order: 77.5 nM, 59.8 nM, 77.1 nM, 75.8 nM and 64.7 nM.
For “GCUAAGUGAUGUUUAUGCCGCCGACCGGAUACCAGCUACUAGGCAAGCCCUUGGCAGCCGCUAUGUGACCGAUCAUUAGUUAUGU [theeternabot_exclusion_KL_Theo_A_6]”, in that order: 857 nM, 734 nM, 913 nM, 790 nM and 682 nM.
For “GCUACCUAGGCAGGAUAUAGACAUUGAGUGAUGUUCGAUGAUUAUCCAUAUUCCCGUCACAUAUGACUAGAAGGGCCUAGGUAGC”, in that order: 660 nM, 184 nM, 221 nM, 228 nM and 211 nM.
With “GCUAUCUGAGCCCAGUGAUGUUGAGUGCUGAAGGAUAUGCGAUAGAGCAGAAGGUCAAGAACAUUGUUCGAUUAUCAAAACAAGU [theeternabot_exclusion_KL_FMN_A_35]”, the “apparent KD of K4 kissing-loop reporter” value worked out at 264 nM (input ligand: FMN 200 uM); 264 nM (input ligand: arginine 13.2 mM); 272 nM (input ligand: none); 356 nM under setting [1]; 328 nM under setting [2].
Consider “GCUAUGGUAGGAAGGAGCGCUUACUCGGUCAUAAGAGUGAUGUUCGAGACCGAGUAUUUAUAGCAGGUAGGUCGCCUACUAUAGC [Arginine B K4 6]”, for which the “apparent KD of K4 kissing-loop reporter” value by setting is: (input ligand: FMN 200 uM) 68 nM; (input ligand: arginine 13.2 mM) 124 nM; (input ligand: none) 2.37 nM; under setting [1], 199 nM; under setting [2], 352 nM.
On the same counts, the results for “GGAAUAACCUGGGAUACCAGUCGGAGGACUAGGGAUCGGAGUGAUGUUCUGGGAUGUUUCGGCCCUUGGCAGCUCUGGUUUUCCG [#2 Exclusion - Theophylline B Attempt #1 (HarryS)]” are 569 nM, 286 nM, 551 nM, 614 nM and 443 nM.
For “GGACGCCGGUCGGCCGCCACUCACAGCAGCCAGUGAUGUUGGAUUGUAGCGGAGUGAUGUUCCGAGAGGACCGGGACUGCAGUCU [Same State Tryptophan B GF 11]”, in that order: 161 nM, 135 nM, 153 nM, 114 nM and 137 nM.
For “GGACGCCGGUCGGCCGCCACUCACAGCAGUGAUGUUCCUGAGAAUGUAGCGGAGUGAUGUUCCGAGAGGACCGGGACUGCAGUUU [Same State Tryptophan B GF 8]”, the “apparent KD of K4 kissing-loop reporter” value reads like this: (input ligand: FMN 200 uM) 799 nM; (input ligand: arginine 13.2 mM) 644 nM; (input ligand: none) 777 nM; under setting [1], 875 nM; under setting [2], 840 nM.
For “GGAGCCGAUAGUGAUACCAGCCAGUGAUGUUGGCGAAGUCUCAUUUUCGCUCUCGGUAAGGGCCCUUGGCAGCACUUACUCGGAA [Arledied]”, the “apparent KD of K4 kissing-loop reporter” value is, setting by setting: (input ligand: FMN 200 uM) 105 nM; (input ligand: arginine 13.2 mM) 94 nM; (input ligand: none) 102 nM; under setting [1], 95.9 nM; under setting [2], 104 nM.
For “GGAGGAGAAUAUGAUACCAGCAGAGAGAGAGAGGAAGUAUAGUGAUGUUAUAUGAGAGAAUGCCCUUGGCAGCAUAAGACGCAGG [#07 K4 Theophylline B Same State]”, in that order: 194 nM, 114 nM, 110 nM, 144 nM and 94.7 nM.
On to “GGAGGGAUCUCGGCCGCCACUCAUAAGAAAUGGGCCUCAGAAAUAUAGUGAUGUUAUGUAAAGAAGAGGACCGGGAGAAAGAAGG [ExTryptoB.Da]”, for which the “apparent KD of K4 kissing-loop reporter” value is 390 nM (input ligand: FMN 200 uM); 202 nM (input ligand: arginine 13.2 mM); 324 nM (input ligand: none); 218 nM under setting [1]; 242 nM under setting [2].
